Laboratory results from patent US20170240619A1.
pKd: −log10 of the molar value.

Key:
[1] = target: HER2 on SK-BR-3 human breast cancer cells (human) (UniProt P04626); assay: flow cytometry on SK-BR-3 cells, human IgG1, anti-human IgG-FITC detection
[2] = target: Biotinylated HER2 extracellular domain (human) (UniProt P04626); assay: SPR (BIAcore), biotinylated HER2 ECD on streptavidin chip, scFv injected, 1:1 Langmuir fit

| Substance | EC50 [1] [µg/mL] | pKd [2] | koff [2] [s⁻¹] | kon [2] [M⁻¹ s⁻¹] |
| --- | --- | --- | --- | --- |
| 4D5 as human IgG1, VL 52D (WT/52D) (antibody) | 0.925 |  |  |  |
| 4D5-b (4D5 scFv, VL 52D) |  | 8.12 | 0.00091 | 120000 |
